Assay [1] has as its target T1, Ssa1 (purified) (S. cerevisiae (budding yeast), UniProt P10591 1-642). Description: cell-based or functional assay.
Assay [2] has as its target T1, Ssa1 (purified). The assay can be described thus: BLI; biotinylated Ydj1 wild-type or mutant (5 μg/ml, equivalent loading) on streptavidin biosensors, Ssa1 (1 μM) in solution; Octet R4, 23°C; 25 mM Hepes pH 7.5, 50 mM KCl, 2 mM DTT, 5 mM MgCl2, 0.5 mM ATP, 0.02% Tween-20; non-specific binding subtracted. Conditions: both partners purified. In general terms: Biolayer interferometry detects binding as a change in optical thickness at a sensor tip.

T1 sequence (P10591 whole entry): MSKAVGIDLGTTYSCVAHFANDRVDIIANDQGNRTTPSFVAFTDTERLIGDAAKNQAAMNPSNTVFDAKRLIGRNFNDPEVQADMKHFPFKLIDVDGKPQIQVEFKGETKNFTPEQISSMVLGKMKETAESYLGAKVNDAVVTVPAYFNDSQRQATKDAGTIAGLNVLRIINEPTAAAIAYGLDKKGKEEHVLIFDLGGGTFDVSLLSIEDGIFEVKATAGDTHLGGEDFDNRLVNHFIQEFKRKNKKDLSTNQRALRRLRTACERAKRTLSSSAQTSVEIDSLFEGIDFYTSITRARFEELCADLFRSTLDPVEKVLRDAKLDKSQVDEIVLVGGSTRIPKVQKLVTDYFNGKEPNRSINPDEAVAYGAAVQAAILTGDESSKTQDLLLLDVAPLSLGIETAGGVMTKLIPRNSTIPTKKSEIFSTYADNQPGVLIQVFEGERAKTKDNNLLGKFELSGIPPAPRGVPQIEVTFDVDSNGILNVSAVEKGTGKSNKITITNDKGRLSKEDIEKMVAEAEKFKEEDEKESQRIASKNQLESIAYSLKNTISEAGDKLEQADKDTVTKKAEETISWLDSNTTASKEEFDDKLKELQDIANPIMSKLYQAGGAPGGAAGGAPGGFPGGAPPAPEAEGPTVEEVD

B1: His-tagged Ydj1 6KR (natural protein, S. cerevisiae (budding yeast), UniProt P25491 1-409, looked up)
chain: MVKETKFYDILGVPVTATDVEIRRAYRKCALRYHPDRNPSEEAAERFREASAAYEILSDPEKRDIYDQFGEDGLSGAGGAGGFPGGGFGFGDDIFSQFFGAGGAQRPRGPQRGKDIKHEISASLEELYKGRTAKLALNKQILCKECEGRGGKKGAVKKCTSCNGQGIKFVTRQMGPMIQRFQTECDVCHGTGDIIDPKDRCKSCNGKKVENERKILEVHVEPGMKDGQRIVFKGEADQAPDVIPGDVVFIVSERPHKSFKRDGDDLVYEAEIDLLTAIAGGEFALEHVSGDWLKVGIVPGEVIAPGMRKVIEGKGMPIPKYGGYGNLIIKFTIKFPENHFTSEENLKKLEEILPPRIVPAIPKKATVDECVLADFDPAKYNRTRASRGGANYDSDEEEQGGEGVQCASQ
modifications: biotin (labelled with a 1.5-fold excess of NHS-PEG4-Biotin, for BLI)
For the molecule B1, the “reactivation of chemically denatured luciferase (3 μM Ssa1, 0.3 μM Ydj1), against wild-type” value in assay [1] was approximately 2 fold.

B2: His-tagged Ydj1 K23Q (natural protein, S. cerevisiae (budding yeast), UniProt P25491 1-409, looked up)
chain: MVKETKFYDILGVPVTATDVEIQKAYRKCALKYHPDKNPSEEAAEKFKEASAAYEILSDPEKRDIYDQFGEDGLSGAGGAGGFPGGGFGFGDDIFSQFFGAGGAQRPRGPQRGKDIKHEISASLEELYKGRTAKLALNKQILCKECEGRGGKKGAVKKCTSCNGQGIKFVTRQMGPMIQRFQTECDVCHGTGDIIDPKDRCKSCNGKKVENERKILEVHVEPGMKDGQRIVFKGEADQAPDVIPGDVVFIVSERPHKSFKRDGDDLVYEAEIDLLTAIAGGEFALEHVSGDWLKVGIVPGEVIAPGMRKVIEGKGMPIPKYGGYGNLIIKFTIKFPENHFTSEENLKKLEEILPPRIVPAIPKKATVDECVLADFDPAKYNRTRASRGGANYDSDEEEQGGEGVQCASQ
modifications: biotin (labelled with a 1.5-fold excess of NHS-PEG4-Biotin, for BLI)
notes: Ydj1, yeast Hsp40; Tag end: see m28; source: E. coli Rosetta (DE3), purified (Ni-sepharose, Superdex 200); not shown: His6, N-terminal, kept
With B2, the binding result in assay [2] is listed as “binds”.

B3: His-tagged Ydj1 K37R (natural protein, S. cerevisiae (budding yeast), UniProt P25491 1-409, looked up)
chain: MVKETKFYDILGVPVTATDVEIKKAYRKCALKYHPDRNPSEEAAEKFKEASAAYEILSDPEKRDIYDQFGEDGLSGAGGAGGFPGGGFGFGDDIFSQFFGAGGAQRPRGPQRGKDIKHEISASLEELYKGRTAKLALNKQILCKECEGRGGKKGAVKKCTSCNGQGIKFVTRQMGPMIQRFQTECDVCHGTGDIIDPKDRCKSCNGKKVENERKILEVHVEPGMKDGQRIVFKGEADQAPDVIPGDVVFIVSERPHKSFKRDGDDLVYEAEIDLLTAIAGGEFALEHVSGDWLKVGIVPGEVIAPGMRKVIEGKGMPIPKYGGYGNLIIKFTIKFPENHFTSEENLKKLEEILPPRIVPAIPKKATVDECVLADFDPAKYNRTRASRGGANYDSDEEEQGGEGVQCASQ
modifications: biotin (labelled with a 1.5-fold excess of NHS-PEG4-Biotin, for BLI)
With B3, in assay [1], the “reactivation of chemically denatured luciferase (3 μM Ssa1, 0.3 μM Ydj1), against wild-type” value is approximately 2 fold.

B4: His-tagged Ydj1 wild-type (natural protein, S. cerevisiae (budding yeast), UniProt P25491 1-409, looked up)
chain: MVKETKFYDILGVPVTATDVEIKKAYRKCALKYHPDKNPSEEAAEKFKEASAAYEILSDPEKRDIYDQFGEDGLSGAGGAGGFPGGGFGFGDDIFSQFFGAGGAQRPRGPQRGKDIKHEISASLEELYKGRTAKLALNKQILCKECEGRGGKKGAVKKCTSCNGQGIKFVTRQMGPMIQRFQTECDVCHGTGDIIDPKDRCKSCNGKKVENERKILEVHVEPGMKDGQRIVFKGEADQAPDVIPGDVVFIVSERPHKSFKRDGDDLVYEAEIDLLTAIAGGEFALEHVSGDWLKVGIVPGEVIAPGMRKVIEGKGMPIPKYGGYGNLIIKFTIKFPENHFTSEENLKKLEEILPPRIVPAIPKKATVDECVLADFDPAKYNRTRASRGGANYDSDEEEQGGEGVQCASQ
modifications: biotin (labelled with a 1.5-fold excess of NHS-PEG4-Biotin, for BLI)
notes: Ydj1, yeast Hsp40; YDJ1 gene amplified from yeast genomic DNA, in pRSETA; Methods: 6xHIS-TEV-Ydj1 fusion; A TEV site lies between tag and Ydj1; A fragment lacking the J-domain co-purifies; also called HIS-Ydj1; Ydj1-biotin; source: E. coli Rosetta (DE3), purified (Ni-sepharose, Superdex 200); not shown: His6, N-terminal, kept
As for B4, the binding result in assay [2] is “binds”.

B5: His-tagged Ydj1 K23R (natural protein, S. cerevisiae (budding yeast), UniProt P25491 1-409, looked up)
chain: MVKETKFYDILGVPVTATDVEIRKAYRKCALKYHPDKNPSEEAAEKFKEASAAYEILSDPEKRDIYDQFGEDGLSGAGGAGGFPGGGFGFGDDIFSQFFGAGGAQRPRGPQRGKDIKHEISASLEELYKGRTAKLALNKQILCKECEGRGGKKGAVKKCTSCNGQGIKFVTRQMGPMIQRFQTECDVCHGTGDIIDPKDRCKSCNGKKVENERKILEVHVEPGMKDGQRIVFKGEADQAPDVIPGDVVFIVSERPHKSFKRDGDDLVYEAEIDLLTAIAGGEFALEHVSGDWLKVGIVPGEVIAPGMRKVIEGKGMPIPKYGGYGNLIIKFTIKFPENHFTSEENLKKLEEILPPRIVPAIPKKATVDECVLADFDPAKYNRTRASRGGANYDSDEEEQGGEGVQCASQ
modifications: biotin (labelled with a 1.5-fold excess of NHS-PEG4-Biotin, for BLI)
notes: as for B2
For B5, the binding result in assay [2] is “binds”.

(Values after publication PMC11658694, “Acetylation of the yeast Hsp40 chaperone protein Ydj1 fine-tunes proteostasis and translational fidelity” (PLOS Genetics, 2024).)
